# In PMC10630337, “Transcriptional reprogramming by mutated IRF4 in lymphoma”:
# T1: IRF4-C99R DBD;JUNB DBD;BATF DBD (human;human;human, UniProt Q15306;P17275;Q16520 20-139;269-329;28-87, C99R||)
# T1 sequence 1: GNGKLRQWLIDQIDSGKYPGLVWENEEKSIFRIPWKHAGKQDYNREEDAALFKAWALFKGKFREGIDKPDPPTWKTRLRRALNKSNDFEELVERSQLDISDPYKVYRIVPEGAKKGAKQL
# T1 sequence 2: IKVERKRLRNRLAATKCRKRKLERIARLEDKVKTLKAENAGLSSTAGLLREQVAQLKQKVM
# T1 sequence 3: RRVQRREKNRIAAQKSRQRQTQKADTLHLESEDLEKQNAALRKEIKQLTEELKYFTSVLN
# T2: IRF4-WT DBD;JUNB DBD;BATF DBD (human;human;human, UniProt Q15306;P17275;Q16520 20-139;269-329;28-87, ||)
# T2 sequence 1: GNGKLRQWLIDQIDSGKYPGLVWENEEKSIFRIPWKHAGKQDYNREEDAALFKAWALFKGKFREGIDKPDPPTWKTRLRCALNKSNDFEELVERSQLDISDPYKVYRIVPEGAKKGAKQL
# T2 sequence 2: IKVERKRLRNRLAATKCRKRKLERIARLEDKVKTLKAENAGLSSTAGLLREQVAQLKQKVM
# T2 sequence 3: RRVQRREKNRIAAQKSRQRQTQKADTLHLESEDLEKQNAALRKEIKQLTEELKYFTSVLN
# Tests used:
# [1] = molecular target: T1, IRF4-C99R DBD;JUNB DBD;BATF DBD; assay: EMSA; IRF4 composite complex abolished; EMSA: 10 mM HEPES pH 7.9, 70 mM KCl, 5 mM DTT, 1 mM EDTA, 2.5 mM MgCl2, 4% Ficoll, 0.5 mg/ml BSA, 0.1 ug/ml poly(dI-dC); 3-5 ug nuclear extract; temperature not stated; settings: protein: recombinant;recombinant;recombinant; copies: 1;1;1; label: 32P-dCTP Klenow end label; 5' overhang 2 nt before Klenow labeling
# [2] = molecular target: T1, IRF4-C99R DBD;JUNB DBD;BATF DBD; assay: EMSA; short or long probe not certain; EMSA: 10 mM HEPES pH 7.9, 70 mM KCl, 5 mM DTT, 1 mM EDTA, 2.5 mM MgCl2, 4% Ficoll, 0.5 mg/ml BSA, 0.1 ug/ml poly(dI-dC); 3-5 ug nuclear extract; temperature not stated; settings: protein: recombinant;recombinant;recombinant; copies: 1;1;1; label: 32P-dCTP Klenow end label; 5' overhang 4 nt before Klenow labeling
# [3] = molecular target: T2, IRF4-WT DBD;JUNB DBD;BATF DBD; assay: as above; settings: protein: recombinant;recombinant;recombinant; copies: 1;1;1; label: 32P-dCTP Klenow end label; 5' overhang 4 nt before Klenow labeling
Binder,binding result [1],binding result [2],binding result [3]
AICE2FLIP short IRFmut (dsDNA) DNA 1: AGTGCATGTATGAGTCAGAGATC DNA 2: AGGATCTCTGACTCATACATGCA,no binding,–,–
AICE2 (Bcl11b) (dsDNA) DNA 1: AGCTTAGTGCAGAAATGAGTCAGAGATCAAAGAAG DNA 2: AGCTCTTCTTTGATCTCTGACTCATTTCTGCACTA,–,binds,–
AICE2FLIP (AICE2 5'TTTC) (dsDNA) DNA 1: AGCTTAGTGCATTTCTGAGTCAGAGATCAAAGAAG DNA 2: AGCTCTTCTTTGATCTCTGACTCAGAAATGCACTA,–,binds,no binding
"AICE2 (Bcl11b) short, IRF motif tAcA (dsDNA) DNA 1: AGTGCATACATGAGTCAGAGATC DNA 2: AGGATCTCTGACTCATGTATGCA",no binding,–,–
